Laboratory results: patent publication US20210171616A1 (Eli Lilly, published 2021)

Legend:
PACAP38 [1] = target: T1, PACAP38 (human, K at residue 38 modified by C-terminal amidation); experiment: cell-based or functional assay
T1 peptide: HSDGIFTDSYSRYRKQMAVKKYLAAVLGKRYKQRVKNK

PACAP27 [2] = target: T2, PACAP27 (human, L at residue 27 modified by C-terminal amidation); experiment: cell-based or functional assay
T2 peptide: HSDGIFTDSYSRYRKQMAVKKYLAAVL

VIP = target: T3, VIP (UniProt P01282 125-152); experiment: cell-based or functional assay
T3 peptide (looked up): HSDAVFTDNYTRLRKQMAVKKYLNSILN

PACAP38 [3] = target: T1, PACAP38; experiment: cell-based or functional assay
PACAP27 [4] = target: T2, PACAP27; experiment: cell-based or functional assay
PACAP27 [5] = target: T2, PACAP27; experiment: cell-based or functional assay
PACAP38 [6] = target: T1, PACAP38; experiment: cell-based or functional assay
PACAP38 [7] = target: T1, PACAP38; experiment: cell-based or functional assay
[8] = target: T4, N-terminal biotinylated PACAP38 (Anaspec, #23590) (human, N-terminal biotin; K at residue 38 modified by C-terminal amidation (as stated for SEQ ID NO 13)); experiment: kinetic exclusion 96-well MSD plate assay, solution equilibrium at 37 C, 30 pM biotinylated antigen
T4 construct: Bought peptide; also called Antigen (PACAP38)
T4 peptide: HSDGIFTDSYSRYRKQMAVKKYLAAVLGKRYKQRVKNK
Experimental: (§1) Binding affinity (KD) for each antibody-antigen complex is determined using a kinetic exclusion 96-well plate-based assay (adapted from Estep et al., mAbs, 2013, 5:270-278). Briefly, a 3-fold dilution series for each Exemplified Ab (set forth in Table 1) is prepared from a starting concentration of 7290 pM to 41 fM; each series including an antibody-blank control. Samples are prepared in 3% (w/v) Blocker A solution (MSD, #R93AA-1) and a fixed final antigen concentration of 30 pM of N-terminal biotinylated PACAP27 (custom synthesis, CPC Scientific) or N-terminal biotinylated PACAP38 (Anaspec, #23590) is added to each sample. A volume of 100 μl of each antigen-antibody sample is added to individual wells of a 96-well microtiter plate (Greiner, EK-20101) in duplicate. The plate is sealed with optical adhesive film (Thermo Fisher Scientific, #4311971) and incubated at 37° C. for 3 to 4 days to allow for sample equilibrium. On the day before analysis, each row of a 96-well MSD Standard plate (MSD, #L15XA) is coated with 30 μl of the corresponding antibody (as used in the titration series) at a concentration of 3 μg/ml in phosphate buffered saline (PBS). On the day of the experiment, the MSD Standard plate is washed once with 150 μl PBS and blocked with 150 μl of 3% Blocker A solution for 45 min at 30° C. with shaking at 300 rpm on a MaxQ 4450 benchtop shaker (Thermo Fisher Scientific). Following three washes with PBS, 50 μl of each antigen-antibody sample (prepared and incubated as described above) is added to the MSD Standard plate and incubated for 150 seconds at 30° C. with shaking at 300 rpm. Following a single wash with PBS, 50 μl of 1 μg/ml SULFO-TAG labeled Streptavidin (MSD, #R32AD-5) prepared in 1% (w/v) Blocker A solution is added and the MSD Standard plate and the plate is incubated at 30° C. for 3 minutes with shaking at 300 rpm. The plate is washed three more times with PBS followed by the addition of 150 μl/well of 1× Read buffer (MSD, #R92TC-2). The MSD Standard plate is read using a MESO Quickplex SQ 120/1300 instrument (Meso Scale Discovery). Data analysis is done using SigmaPlot (Version 12.5, Systat Software) and binding affinity (KD) is determined using SigmaPlot's integrated Four Parameter Logistic Curve Model.

[9] = target: T5, N-terminal biotinylated PACAP27 (custom synthesis, CPC Scientific) (human, N-terminal biotin; L at residue 27 modified by C-terminal amidation (as stated for SEQ ID NO 14)); experiment: as above
T5 construct: Custom peptide; also called Antigen (PACAP27)
T5 peptide: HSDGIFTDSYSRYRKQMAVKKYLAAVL
Experimental: as §1

| Binder | Inhibition (IC50) of PACAP38 (100 pM) induced cAMP in hPAC1 CHO-K1 cells (PACAP38 [1]) | Inhibition (IC50) of PACAP38 (800 pM) induced cAMP in hVPAC2 CHO-K1 cells (PACAP38 [1]) | Inhibition (IC50) of PACAP27 (100 pM) induced cAMP in hPAC1 CHO-K1 cells (PACAP27 [2]) | Inhibition (IC50) of PACAP27 (800 pM) induced cAMP in hVPAC2 CHO-K1 cells (PACAP27 [2]) | Inhibition (IC50) of VIP (800 pM) induced cAMP in hVPAC2 CHO-K1 cells (VIP) | Percentage tryptase release in human mast cells upon addition of 1 uM PACAP38; antibody 153 uM, single point (PACAP38 [3]) | Percentage tryptase release in human mast cells upon addition of 1 uM PACAP27; antibody 153 uM, single point (PACAP27 [4]) | Percentage tryptase release upon addition of PACAP27; antibody dose 0 uM (PACAP27 [5]) | Percentage tryptase release upon addition of PACAP27; antibody dose 0.2 uM (PACAP27 [5]) | Percentage tryptase release upon addition of PACAP27; antibody dose 0.6 uM (PACAP27 [5]) | Percentage tryptase release upon addition of PACAP27; antibody dose 1.8 uM (PACAP27 [5]) | Percentage tryptase release upon addition of PACAP27; antibody dose 5.6 uM (PACAP27 [5]) | Percentage tryptase release upon addition of PACAP27; antibody dose 17 uM (PACAP27 [5]) | Percentage tryptase release upon addition of PACAP27; antibody dose 51 uM (PACAP27 [5]) | Percentage tryptase release upon addition of PACAP27; antibody dose 153 uM (PACAP27 [5]) | Percentage tryptase release upon addition of PACAP38; antibody dose 0 uM (PACAP38 [6]) | Percentage tryptase release upon addition of PACAP38; antibody dose 0.2 uM (PACAP38 [6]) | Percentage tryptase release upon addition of PACAP38; antibody dose 0.6 uM (PACAP38 [6]) | Percentage tryptase release upon addition of PACAP38; antibody dose 1.8 uM (PACAP38 [6]) | Kd [9] | also measured |
| --- | --- | --- | --- | --- | --- | --- | --- | --- | --- | --- | --- | --- | --- | --- | --- | --- | --- | --- | --- | --- | --- |
| Exemplified Antibody B (antibody, human IgG4 S228P, kappa, F234A L235A, V domains shown, IgG4, kappa light chain; also called Exemplified Ab B; Ab B) VH: EVQLLESGGGLVQPGGSLRLSCAASGFTFSSYYMSWVRQAPGKGLEWVSAISLSGGSTYYAASHKGRFTISRDNSKNTLYLQMNSLRAEDTAVYYCVREVGASTHNYYGMDVWGQGTMVTVSS VL: DIQMTQSPSSLSASVGDRVTITCRASQSIWRWLAWYQQKPGKAPKLLIHDASQLFEGVPSRFSGSGSGTDFTFTISSLQPEDIATYYCQQFDLLPLTFGGGTKVEIKR | 265 pM | 294 pM | 270 pM | 605 pM | > 100000 pM | 4.9% | 21% | 85.2% | 78.1% | 54% | 11.7% | 8.1% | 11.6% | 19.4% | 10.3% | 77.2% | 73.7% | 52.4% | 25.2% | 11.6 pM | Percentage tryptase release upon addition of PACAP38; antibody dose 5.6 uM (PACAP38 [6]): 22%; Percentage tryptase release upon addition of PACAP38; antibody dose 17 uM (PACAP38 [6]): 14.9%; Percentage tryptase release upon addition of PACAP38; antibody dose 51 uM (PACAP38 [6]): 14.6%; Percentage tryptase release upon addition of PACAP38; antibody dose 153 uM (PACAP38 [6]): 2%; Plasma cAMP levels in CD-1 mice after iv PACAP38 (13 nmols/kg); antibody 10 mg/kg sc (PACAP38 [7]): 715 nM; Kd [8]: 12.8 pM |
| Exemplified Antibody C (antibody, human IgG4 S228P, kappa, F234A L235A, V domains shown, IgG4, kappa light chain; also called Exemplified Ab C; Ab C) VH: EVQLLESGGGLVQPGGSLRLSCAASGFTFSSYYMSWVRQAPGKGLEWVSAISLSGGSTYYAESHKGRFTISRDNSKNTLYLQMNSLRAEDTAVYYCVREVGASTHNYYGMDVWGQGTMVTVSS VL: DIQMTQSPSSLSASVGDRVTITCRASQSIWRWLAWYQQKPGKAPKLLIHDASQLFEGVPSRFSGSGSGTDFTFTISSLQPEDIATYYCQQFDLLPLTFGGGTKVEIKR | 303 pM | 325 pM | 311 pM | 595 pM | > 100000 pM | 5.5% | 14.2% | 85.8% | 85.2% | 55.4% | 10.4% | 11.5% | 8% | 17.8% | 9.7% | 80.3% | 77.6% | 66.6% | 26.5% | 14.5 pM | Percentage tryptase release upon addition of PACAP38; antibody dose 5.6 uM (PACAP38 [6]): 21.9%; Percentage tryptase release upon addition of PACAP38; antibody dose 17 uM (PACAP38 [6]): 15.5%; Percentage tryptase release upon addition of PACAP38; antibody dose 51 uM (PACAP38 [6]): 12.1%; Percentage tryptase release upon addition of PACAP38; antibody dose 153 uM (PACAP38 [6]): 2.8%; Plasma cAMP levels in CD-1 mice after iv PACAP38 (13 nmols/kg); antibody 10 mg/kg sc (PACAP38 [7]): 666 nM; Kd [8]: 14.6 pM |
| Exemplified Antibody A (antibody, human IgG4 S228P, kappa, F234A L235A, V domains shown, IgG4, kappa light chain; also called Exemplified Ab A; Ab A) VH: EVQLLESGGGLVQPGGSLRLSCAASGFTFSSYYMSWVRQAPGKGLEWVSAISLSGGSTYYADSHKGRFTISRDNSKNTLYLQMNSLRAEDTAVYYCVREVGASNHNYYGMDVWGQGTMVTVSS VL: DIQMTQSPSSLSASVGDRVTITCRASQSISRWLAWYQQKPGKAPKLLIHDASQLLEGVPSRFSGSGSGTDFTFTISSLQPEDIATYYCQQFDLLPLTFGGGTKVEIKR | 554 pM | 714 pM | 2250 pM | 781 pM | > 100000 pM | – | – | – | – | – | – | – | – | – | – | – | – | – | – | 37 pM | – |
| Exemplified Antibody D (antibody, human IgG4 S228P, kappa, F234A L235A, V domains shown, IgG4, kappa light chain; also called Exemplified Ab D; Ab D) VH: EVQLLESGGGLVQPGGSLRLSCAASGFTFSSYYMSWVRQAPGKGLEWVSAISLSGGSTYYAQSHKGRFTISRDNSKNTLYLQMNSLRAEDTAVYYCVREVGASTHNYYGMDVWGQGTMVTVSS VL: DIQMTQSPSSLSASVGDRVTITCRASQSIWRWLAWYQQKPGKAPKLLIHDASQLFEGVPSRFSGSGSGTDFTFTISSLQPEDIATYYCQQFDLLPLTFGGGTKVEIKR | 205 pM | 243 pM | 212 pM | 515 pM | > 100000 pM | 4.2% | 15.1% | 92.7% | 86.5% | 73% | 20.3% | 16.4% | 19.8% | 26% | 9.4% | 76.5% | 74% | 64.5% | 31.3% | 10.5 pM | Percentage tryptase release upon addition of PACAP38; antibody dose 5.6 uM (PACAP38 [6]): 25.9%; Percentage tryptase release upon addition of PACAP38; antibody dose 17 uM (PACAP38 [6]): 19.6%; Percentage tryptase release upon addition of PACAP38; antibody dose 51 uM (PACAP38 [6]): 14.7%; Percentage tryptase release upon addition of PACAP38; antibody dose 153 uM (PACAP38 [6]): 1.7%; Plasma cAMP levels in CD-1 mice after iv PACAP38 (13 nmols/kg); antibody 10 mg/kg sc (PACAP38 [7]): 560 nM; Kd [8]: 9 pM |
